Laboratory results: patent publication US20260167959A1, “APTAZYME-BASED REGULATABLE GENE EXPRESSION SYSTEMS” (REJUVENATE BIO INC, priority 2022, published 2026)
Residue numbers refer to the chain shown, from its start.

B1: RA260 (nucleic acid)
DNA: GCGCGTCCTGGATTCGCGGAAACGCCGGAATACCAGCATCGTCTTGATGCCCTTGGAAGTCCGGCGTACATCCAGCTGACGAGTCCCAAATAGGACGAAACGCGC
modifications: expressed or natural sequence
B2: RA251 (nucleic acid)
DNA: GCGCGTCCTGGACCGGAATACCAGCATCGTCTTGATGCCCTTGGAAGTCCGGTTCGCGGAAACGCGTACATCCAGCTGACGAGTCCCAAATAGGACGAAACGCGC
modifications: expressed or natural sequence
B3: RA262 (nucleic acid)
DNA: GCTGTCACCGGAATACCAGCATCGTCTTGATGCCCTTGGAAGTCCGGTCTGATGAGTCCCATAAGGACGAAACAGC
modifications: expressed or natural sequence
B4: RA252 (nucleic acid)
DNA: GCGCGTCCTGGATTCGCGGAAGTGATACCAGCATCGTCTTGATGCCCTTGGCAGCACTAACGCGTACATCCAGCTGACGAGTCCCAAATAGGACGAAACGCGC
modifications: expressed or natural sequence
B5: RA259 (nucleic acid)
DNA: GCGCGTCCTGGATTCGCGGAAACGCGTACATCCAGCTGACGAGTCCCAAATAGGACGAAAAGTGATACCAGCATCGTCTTGATGCCCTTGGCAGCACTCGCGC
modifications: expressed or natural sequence
B6: RA257 (nucleic acid)
DNA: GCGCGTCCTGGATTCGCGGAAACGCCGGAATACCAGCATCGTCTTGATGCCCTTGGAAGTCCGGTACATCCAGCTGACGAGTCCCAAATAGGACGAAACGCGC
modifications: expressed or natural sequence
B7: RA270 (nucleic acid)
DNA: GCGCGTCCTGGATTCGCGGAAACGCGTACATCCAGCTGACGAGTCCCAAATAGGACGAAGAATACCAGCATCGTCTTGATGCCCTTGGAAGTCTAACGCGC
modifications: expressed or natural sequence
B8: RA265 (nucleic acid)
DNA: GCGCGTCCTGGATTCGCGGAAACGCGTACATCCAGCTGACGAGTCCCAAAGGAATACCAGCATCGTCTTGATGCCCTTGGAAGTCCTAGGACGAAACGCGC
modifications: expressed or natural sequence
B9: RA255 (nucleic acid)
DNA: GCGCGTCCTGGATTCGCGGAAACGCGTACATCCAGCTGACGAGTCCCAAATAGGACGAAACCGGAATACCAGCATCGTCTTGATGCCCTTGGAAGTCCGGCGCGC
modifications: expressed or natural sequence
B10: RA253 (nucleic acid)
DNA: GCGCGTCCTGGATTCGCGGAAACGCGTACATGGAATACCAGCATCGTCTTGATGCCCTTGGAAGTCCCCAGCTGACGAGTCCCAAATAGGACGAAACGCGC
modifications: expressed or natural sequence
B11: RA263 (nucleic acid)
DNA: GCGCGTCCTGGATTCGCGGAAACGCGTACATCCAGCTGACGAGTCCCAAAAGTGATACCAGCATCGTCTTGATGCCCTTGGCAGCACTTAGGACGAAACGCGC
modifications: expressed or natural sequence
B12: RA274 (nucleic acid)
DNA: B11 DNA with A51G, G52A, T53G, G54A, C82A, C85T, A86C, C87T, T88C
modifications: expressed or natural sequence
B13: RA268 (nucleic acid)
DNA: GCGCGTCCTGGATTCGCGGAAACGCGTACATCCAGCTGACGAGTCCCAAATAGGACGAAACGCGGAGAATACCAGCATCGTCTTGATGCCCTTGGAAGTCTCC
modifications: expressed or natural sequence
B14: RA256 (nucleic acid)
DNA: GCGCGTCCTGGATTCGCGGAAACGCGTACATGAGAATACCAGCATCGTCTTGATGCCCTTGGAAGTCTCCCAGCTGACGAGTCCCAAATAGGACGAAACGCGC
modifications: expressed or natural sequence
B15: RA261 (nucleic acid)
DNA: GCGCGTCCTGGATTCGCGGAAACGCGTACATCCAGCTGACGAGTCCCAACGAGAATACCAGCATCGTCTTGATGCCCTTGGAAGTCTCGATAGGACGAAACGCGC
modifications: expressed or natural sequence
B16: RA271 (nucleic acid)
DNA: B15 DNA with G51C, A52G, T87C, C88G
modifications: expressed or natural sequence
B17: RA269 (nucleic acid)
DNA: GCGCGTCCTGGATTCGCGGAAACGCGAGAATACCAGCATCGTCTTGATGCCCTTGGAAGTCTTACATCCAGCTGACGAGTCCCAAATAGGACGAAACGCGC
modifications: expressed or natural sequence
B18: RA025 (nucleic acid)
DNA: GCGCGTCCCGAGAATACCAGCATCGTCTTGATGCCCTTGGAAGTCTCGTGGATTCGCGGAAACGCGTACATCCAGCTGACGAGTCCCAAATAGGACGAAACGCGC
modifications: expressed or natural sequence
B19: RA264 (nucleic acid)
DNA: GCGCGTCCTGGATTCGCGGAAACGCGTACATCCAGCTAGAATACCAGCATCGTCTTGATGCCCTTGGAAGTCTGACGAGTCCCAAATAGGACGAAACGCGC
modifications: expressed or natural sequence
B20: RA272 (nucleic acid)
DNA: GCGCGTCCTGGATTCGCGGAAACGCGTACATCCAGCTGACGAGTCCCAAATAGGACGAAACGCGCAGAATACCAGCATCGTCTTGATGCCCTTGGAAGTCT
modifications: expressed or natural sequence
B21: RA258 (nucleic acid)
DNA: GCGCGTCCTGGATTAGTGATACCAGCATCGTCTTGATGCCCTTGGCAGCACTCGCGGAAACGCGTACATCCAGCTGACGAGTCCCAAATAGGACGAAACGCGC
modifications: expressed or natural sequence
B22: RA267 (nucleic acid)
DNA: GCGCGTCCTGGATTCGCGGAAACGCGTACATCCAGCTGACGAGTGGAATACCAGCATCGTCTTGATGCCCTTGGAAGTCCCCCAAATAGGACGAAACGCGC
modifications: expressed or natural sequence
B23: RA273 (nucleic acid)
DNA: GCGCGTCCTGGATTCGCGGGAATACCAGCATCGTCTTGATGCCCTTGGAAGTCCGAAACGCGTACATCCAGCTGACGAGTCCCAAATAGGACGAAACGCGC
modifications: expressed or natural sequence
B24: RA266 (nucleic acid)
DNA: GCGCGTCCTGGATTCGCGGAAACGCGCGAGAATACCAGCATCGTCTTGATGCCCTTGGAAGTCTCGTACATCCAGCTGACGAGTCCCAAATAGGACGAAACGCGC
modifications: expressed or natural sequence
B25: RA026 (nucleic acid)
DNA: GCGCGTCCTGGATTCGCGGAAACGCGTACATCCAGCTGACGAGTCCGAGAATACCAGCATCGTCTTGATGCCCTTGGAAGTCTCGCCAAATAGGACGAAACGCGC
modifications: expressed or natural sequence
B26: RA254 (nucleic acid)
DNA: GCGCGTCCTGGATTCGCGGAAACGCGTACATCCAGCAGAATACCAGCATCGTCTTGATGCCCTTGGAAGTCTTGACGAGTCCCAAATAGGACGAAACGCGC
modifications: expressed or natural sequence

The molecules below were run on Renilla luciferase RNA (assay: Barcoded aptazyme variant library screen: un-cleaved Renilla luciferase RNA by barcode read counts, HEK293-T cells). Conditions: un-cleaved Renilla luciferase RNA, HEK293-T cells cultured with 1 mM theophylline (ON) over without theophylline (OFF); barcode read counts, triplicate.
Format: cell-based
Excerpt: Based on the findings from Example 1, an aptazyme variant library was generated from the T3H48 ribozyme with one of seven variant theophylline aptamers inserted sequentially after each nucleotide of the DNA sequence encoding the T3H48 ribozyme sequence. […] The seven variant theophylline aptamers vary in their communication channels, which are the ribonucleotides of the aptamer that attach to the ribozyme sequence (see, Table 2).
The library was barcoded with unique sequences of nine nucleotides flanked by forward and reverse primer amplification sequences.
The aptazyme library was then PCR amplified and cloned into the psiCHECK™-2 dual luciferase vector in the 3′ UTR of the Renilla luciferase gene. […] The next day, the cells were isolated followed by DNA and RNA extraction using standard methods. The purified RNA was then converted to cDNA and the barcoded portion of the aptazyme library was PCR amplified. Similarly, the DNA was PCR amplified and all the samples were sequenced. All experimental conditions (with theophylline and without theophylline) were performed in triplicate. The read count for each barcode was determined with a custom build code and the data was normalized to identify the un-cleaved fractions of the Renilla luciferase RNA from cells that were cultured in the presence or absence of theophylline for each aptazyme, which was used to obtain the fold-change between ON- and OFF-states (FIG. 2).

Molecule	Fold change in RNA expression between the ON state and the OFF state
RA215 (DNA GCTGTCACCGGATGTGCTTTCCGGTACGTGAGGTCCGTGAGGACGAAACAGC; expressed or natural sequence)	1.2 fold
B1	1.1 fold
B2	1.1 fold
B3	1.1 fold
B4	1.1 fold
B5	1.1 fold
B6	1.1 fold
B7	1.0 fold
B8	1.0 fold
B9	1.1 fold
B10	1.1 fold
B11	1.1 fold
B12	1.0 fold
B13	1.0 fold
B14	1.1 fold
B15	1.1 fold
B16	1.0 fold
B17	1.0 fold
B18	2.5 fold
B19	1.0 fold
B20	1.0 fold
B21	1.1 fold
B22	1.0 fold
B23	1.0 fold
B24	1.0 fold
B25	2.4 fold
B26	1.1 fold
